Broadly, the stoichiometry N is the number of molecules, sites or subunits per partner or assembly.

This note sets out measurements from PMC3332085.

Holding throughout (assay): SAXS
Test [1] has as its target wild type yeast frataxin (Yfh1wt; residues 52-174) (S. cerevisiae) (UniProt Q07540).
Test [2] shares this target. This is another data set of the same source.
The target is the same in test [3]. The source holds these as a separate data set.

Like-named read-outs stand apart in the source and are kept apart here.

“wild type yeast frataxin (Yfh1wt; residues 52-174) (from UniProt Q07540 52-174) (natural protein)”: in test [1], the distribution, hexamer was 13%; the distribution, monomer worked out at 54%; the distribution, trimer came to 33%. In test [2], this substance came in with a distribution, 42-mer of 11%; a distribution, hexamer of 6%; a distribution, monomer of 26%; a distribution, trimer of 57%. In test [3], this substance registered a distribution, hexamer of 9%; a distribution, monomer of 67%; a distribution, trimer of 24%; a stoichiometry N of 2.
